These results are taken from patent US20190352423A1 (Genmab, published 2019).

The labels stand for the following.
T1: recombinant human CD63 second extracellular domain (Ala 103-Val 203) fused with a polyhistidine tag at the … (human, UniProt P08962 103-203)
T1 construct: range 103-203; Bought from Creative BioMart; also called human His-tagged CD63; soluble CD63
T1 sequence (looked up): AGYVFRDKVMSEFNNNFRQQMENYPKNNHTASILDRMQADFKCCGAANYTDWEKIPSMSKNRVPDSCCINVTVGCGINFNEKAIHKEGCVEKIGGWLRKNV

B1: IgG1-CD63 affinity variant G76H (antibody, V domains shown)
VH: EVQLQQSGPELVKPGASVKMSCKASGYTFTSYVMHWVRQTPGQGLEWIGYITPYNDHTKYNEKFKGKATLTSDKSSSTAYMELSSLTSEDSAVYYCVGGDNYYYAMDYWGQGTSVTVSA
VL: NIMVTQSPSSLAVSAGEKVTMSCKSSQSVLYSSNQKNYLAWYQQKPGQSPKLLIYWASTRVSGVPDRFTGSGSGTDFTLTISRVQAEDLAVYYCHQYFSSFTFGSGTKLEIKR
notes: As m1 with one histidine substitution
B2: IgG1-CD63 affinity variant LQ47 (antibody, V domains shown)
VH: EVQLQQSGPELVKPGASVKMSCKASGYTFTSYVMHWVRQTPGQGLEWIGYITPYNDGTKYNEKFKGKATLTSDKSSSTAYMELSSLTSEDSAVYYCVGGDNYYYAMDYWGQGTSVTVSA
VL: NIMVTQSPSSLAVSAGEKVTMSCKSSHSVLYSSNQKNYLAWYQQKPGQSPKLLIYWASTRVSGVPDRFTGSGSGTDFTLTISRVQAEDLAVYYCHQYFSSFTFGSGTKLEIKR
notes: As m1 with one histidine substitution in the light chain
B3: bsHER2xCD63-Duo3 with CD63 variant P72H (bispecific antibody, part only; not given: HER2 arm (IgG1-153) VH and VL, V domains shown, part only)
VH: EVQLQQSGPELVKPGASVKMSCKASGYTFTSYVMHWVRQTPGQGLEWIGYITHYNDGTKYNEKFKGKATLTSDKSSSTAYMELSSLTSEDSAVYYCVGGDNYYYAMDYWGQGTSVTVSAA
VL: NIMVTQSPSSLAVSAGEKVTMSCKSSQSVLYSSNQKNYLAWYQQKPGQSPKLLIYWASTRVSGVPDRFTGSGSGTDFTLTISRVQAEDLAVYYCHQYFSSFTFGSGTKLEIKRT
B4: bsHER2xCD63N74H-Duo3 (bispecific antibody, part only; not given: HER2 arm, V domains shown, part only)
VH: EVQLQQSGPELVKPGASVKMSCKASGYTFTSYVMHWVRQTPGQGLEWIGYITPYHDGTKYNEKFKGKATLTSDKSSSTAYMELSSLTSEDSAVYYCVGGDNYYYAMDYWGQGTSVTVSAA
VL: NIMVTQSPSSLAVSAGEKVTMSCKSSQSVLYSSNQKNYLAWYQQKPGQSPKLLIYWASTRVSGVPDRFTGSGSGTDFTLTISRVQAEDLAVYYCHQYFSSFTFGSGTKLEIKRT
B5: bsCD63xb12-Duo3 with CD63 variant G76H (bispecific antibody, part only; not given: b12 control arm VH and VL, V domains shown, part only)
VH: EVQLQQSGPELVKPGASVKMSCKASGYTFTSYVMHWVRQTPGQGLEWIGYITPYNDHTKYNEKFKGKATLTSDKSSSTAYMELSSLTSEDSAVYYCVGGDNYYYAMDYWGQGTSVTVSAA
VL: NIMVTQSPSSLAVSAGEKVTMSCKSSQSVLYSSNQKNYLAWYQQKPGQSPKLLIYWASTRVSGVPDRFTGSGSGTDFTLTISRVQAEDLAVYYCHQYFSSFTFGSGTKLEIKRT
B6: bsCD63xb12-Duo3 with CD63 variant LN54H (bispecific antibody, part only; not given: b12 control arm VH and VL, V domains shown, part only)
VH: EVQLQQSGPELVKPGASVKMSCKASGYTFTSYVMHWVRQTPGQGLEWIGYITPYNDGTKYNEKFKGKATLTSDKSSSTAYMELSSLTSEDSAVYYCVGGDNYYYAMDYWGQGTSVTVSAA
VL: NIMVTQSPSSLAVSAGEKVTMSCKSSQSVLYSSHQKNYLAWYQQKPGQSPKLLIYWASTRVSGVPDRFTGSGSGTDFTLTISRVQAEDLAVYYCHQYFSSFTFGSGTKLEIKRT
B7: bsHER2xCD63-Duo3 with CD63 variant LY51H (bispecific antibody, part only; not given: HER2 arm (IgG1-153) VH and VL, V domains shown, part only)
VH: EVQLQQSGPELVKPGASVKMSCKASGYTFTSYVMHWVRQTPGQGLEWIGYITPYNDGTKYNEKFKGKATLTSDKSSSTAYMELSSLTSEDSAVYYCVGGDNYYYAMDYWGQGTSVTVSAA
VL: NIMVTQSPSSLAVSAGEKVTMSCKSSQSVLHSSNQKNYLAWYQQKPGQSPKLLIYWASTRVSGVPDRFTGSGSGTDFTLTISRVQAEDLAVYYCHQYFSSFTFGSGTKLEIKRT
B8: bsCD63xb12-Duo3 with CD63 variant LV49H (bispecific antibody, part only; not given: b12 control arm, V domains shown, part only)
VH: EVQLQQSGPELVKPGASVKMSCKASGYTFTSYVMHWVRQTPGQGLEWIGYITPYNDGTKYNEKFKGKATLTSDKSSSTAYMELSSLTSEDSAVYYCVGGDNYYYAMDYWGQGTSVTVSAA
VL: NIMVTQSPSSLAVSAGEKVTMSCKSSQSHLYSSNQKNYLAWYQQKPGQSPKLLIYWASTRVSGVPDRFTGSGSGTDFTLTISRVQAEDLAVYYCHQYFSSFTFGSGTKLEIKRT
B9: bsHER2xCD63-Duo3 with CD63 variant Y121H (bispecific antibody, part only; not given: HER2 arm, V domains shown, part only)
VH: EVQLQQSGPELVKPGASVKMSCKASGYTFTSYVMHWVRQTPGQGLEWIGYITPYNDGTKYNEKFKGKATLTSDKSSSTAYMELSSLTSEDSAVYYCVGGDNHYYAMDYWGQGTSVTVSAA
VL: NIMVTQSPSSLAVSAGEKVTMSCKSSQSVLYSSNQKNYLAWYQQKPGQSPKLLIYWASTRVSGVPDRFTGSGSGTDFTLTISRVQAEDLAVYYCHQYFSSFTFGSGTKLEIKRT
B10: bsHER2xCD63-Duo3 with CD63 variant G76H (bispecific antibody, part only; not given: HER2 arm (IgG1-153) VH and VL, V domains shown, part only)
VH: EVQLQQSGPELVKPGASVKMSCKASGYTFTSYVMHWVRQTPGQGLEWIGYITPYNDHTKYNEKFKGKATLTSDKSSSTAYMELSSLTSEDSAVYYCVGGDNYYYAMDYWGQGTSVTVSAA
VL: NIMVTQSPSSLAVSAGEKVTMSCKSSQSVLYSSNQKNYLAWYQQKPGQSPKLLIYWASTRVSGVPDRFTGSGSGTDFTLTISRVQAEDLAVYYCHQYFSSFTFGSGTKLEIKRT
B11: bsCD63xb12-Duo3 with CD63 variant Y121H (bispecific antibody, part only; not given: b12 control arm VH and VL, V domains shown, part only)
VH: EVQLQQSGPELVKPGASVKMSCKASGYTFTSYVMHWVRQTPGQGLEWIGYITPYNDGTKYNEKFKGKATLTSDKSSSTAYMELSSLTSEDSAVYYCVGGDNHYYAMDYWGQGTSVTVSAA
VL: NIMVTQSPSSLAVSAGEKVTMSCKSSQSVLYSSNQKNYLAWYQQKPGQSPKLLIYWASTRVSGVPDRFTGSGSGTDFTLTISRVQAEDLAVYYCHQYFSSFTFGSGTKLEIKRT
B12: bsCD63xb12-Duo3 with CD63 variant LY51H (bispecific antibody, part only; not given: b12 control arm VH and VL, V domains shown, part only)
VH: EVQLQQSGPELVKPGASVKMSCKASGYTFTSYVMHWVRQTPGQGLEWIGYITPYNDGTKYNEKFKGKATLTSDKSSSTAYMELSSLTSEDSAVYYCVGGDNYYYAMDYWGQGTSVTVSAA
VL: NIMVTQSPSSLAVSAGEKVTMSCKSSQSVLHSSNQKNYLAWYQQKPGQSPKLLIYWASTRVSGVPDRFTGSGSGTDFTLTISRVQAEDLAVYYCHQYFSSFTFGSGTKLEIKRT
B13: bsHER2xCD63-Duo3 with CD63 variant LN54H (bispecific antibody, part only; not given: HER2 arm (IgG1-153) VH and VL, V domains shown, part only)
VH: EVQLQQSGPELVKPGASVKMSCKASGYTFTSYVMHWVRQTPGQGLEWIGYITPYNDGTKYNEKFKGKATLTSDKSSSTAYMELSSLTSEDSAVYYCVGGDNYYYAMDYWGQGTSVTVSAA
VL: NIMVTQSPSSLAVSAGEKVTMSCKSSQSVLYSSHQKNYLAWYQQKPGQSPKLLIYWASTRVSGVPDRFTGSGSGTDFTLTISRVQAEDLAVYYCHQYFSSFTFGSGTKLEIKRT
B14: bsCD63N74Hxb12-Duo3 (bispecific antibody, part only; not given: b12 control arm, V domains shown, part only)
VH: EVQLQQSGPELVKPGASVKMSCKASGYTFTSYVMHWVRQTPGQGLEWIGYITPYHDGTKYNEKFKGKATLTSDKSSSTAYMELSSLTSEDSAVYYCVGGDNYYYAMDYWGQGTSVTVSAA
VL: NIMVTQSPSSLAVSAGEKVTMSCKSSQSVLYSSNQKNYLAWYQQKPGQSPKLLIYWASTRVSGVPDRFTGSGSGTDFTLTISRVQAEDLAVYYCHQYFSSFTFGSGTKLEIKRT
B15: bsHER2xCD63-Duo3 with CD63 variant LV49H (bispecific antibody, part only; not given: HER2 arm (IgG1-153) VH and VL, V domains shown, part only)
VH: EVQLQQSGPELVKPGASVKMSCKASGYTFTSYVMHWVRQTPGQGLEWIGYITPYNDGTKYNEKFKGKATLTSDKSSSTAYMELSSLTSEDSAVYYCVGGDNYYYAMDYWGQGTSVTVSAA
VL: NIMVTQSPSSLAVSAGEKVTMSCKSSQSHLYSSNQKNYLAWYQQKPGQSPKLLIYWASTRVSGVPDRFTGSGSGTDFTLTISRVQAEDLAVYYCHQYFSSFTFGSGTKLEIKRT

One test addresses T1, recombinant human CD63 second …. Briefly: BLI (Octet HTX), IgG on anti-human Fc sensors, His-tagged CD63 as analyte, 30 C. The method, then:
Association and dissociation kinetics of human His-tagged CD63 (100 nM, 50 nM, 25 nM and 12.5 nM, concentrations were calculated using the predicted molecular weight of 13 kDa) were determined in Sample Diluent (ForteBio), using an association time of 1000 s, a dissociation time of 2000 s and a shaker speed of 1000 rpm at 30° C. Data traces were corrected using a reference sensor exposed to Sample Diluent only during the association and dissociation steps, the Y-axis was aligned to baseline and Inter-step correction as well as Savitzky-Golay filtering were applied. The association rate constant Kₒₙ (1/Ms), dissociation rate constant Kdis (1/s) and equilibrium dissociation constant KD (M) were determined with ForteBio Data Analysis Software v8.1, using the 1:1 model and a global full fit.
With B1, the Kd was found to be 17 nM, the koff is 0.00038 s⁻¹ and the kon was 22000 M⁻¹ s⁻¹.
Take B2: the equilibrium dissociation constant (Kd) came out at 0.37 nM, the koff amounted to 6.7e-05 s⁻¹ and the kon was found to be 180000 M⁻¹ s⁻¹.

The target of the next test is CD63 on cells (human) (UniProt P08962). Description: cell-based or functional assay.
Chain of CD63 on cells (human) (P08962 2-238): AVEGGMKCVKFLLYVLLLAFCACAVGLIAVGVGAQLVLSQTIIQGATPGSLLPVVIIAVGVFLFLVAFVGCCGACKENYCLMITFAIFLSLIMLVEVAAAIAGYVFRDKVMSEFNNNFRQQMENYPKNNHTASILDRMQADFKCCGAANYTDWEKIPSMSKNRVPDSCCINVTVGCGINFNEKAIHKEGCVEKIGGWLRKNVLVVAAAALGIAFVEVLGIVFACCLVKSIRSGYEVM
B3 yielded an IC50 of cytotoxicity, Colo205 cells (CellTiter-GLO, 4 days) of 1.4 µg/mL; an IC50 of cytotoxicity, HCC1954 cells (CellTiter-GLO, 4 days) of 0.014 µg/mL; an IC50 of cytotoxicity, SK-OV-3 cells (CellTiter-GLO, 4 days) of 0.028 µg/mL.
B4 registered an IC50 of cytotoxicity, Colo205 cells (CellTiter-GLO, 4 days) of 1.35 µg/mL; an IC50 of cytotoxicity, HCC1954 cells (CellTiter-GLO, 4 days) of 0.017 µg/mL; an IC50 of cytotoxicity, SK-OV-3 cells (CellTiter-GLO, 4 days) of 0.037 µg/mL.
In the same order, the values of B5 are 1.42 µg/mL, 10 µg/mL and 3.06 µg/mL.
As to B6, the IC50 of cytotoxicity, Colo205 cells (CellTiter-GLO, 4 days) is 10 µg/mL; the IC50 of cytotoxicity, HCC1954 cells (CellTiter-GLO, 4 days) came out at 1.55 µg/mL; the IC50 of cytotoxicity, SK-OV-3 cells (CellTiter-GLO, 4 days) stood at 3.35 µg/mL; the lysosomal co-localization with LAMP1 in SK-OV-3 cells (confocal microscopy, 16 hours) amounted to 10 fold lower.
B7 came in with an IC50 of cytotoxicity, Colo205 cells (CellTiter-GLO, 4 days) of 10 µg/mL; an IC50 of cytotoxicity, HCC1954 cells (CellTiter-GLO, 4 days) of 0.069 µg/mL; an IC50 of cytotoxicity, SK-OV-3 cells (CellTiter-GLO, 4 days) of 0.207 µg/mL.
In the same order, the values of B8 are 10 µg/mL, 1.65 µg/mL and 1.4 µg/mL.
In the same order, the values of B9 are 10 µg/mL, 0.073 µg/mL and 0.259 µg/mL.
B10 showed an IC50 of cytotoxicity, Colo205 cells (CellTiter-GLO, 4 days) of 10 µg/mL; an IC50 of cytotoxicity, HCC1954 cells (CellTiter-GLO, 4 days) of 0.104 µg/mL; an IC50 of cytotoxicity, SK-OV-3 cells (CellTiter-GLO, 4 days) of 0.351 µg/mL.
In turn, B11 had an IC50 of cytotoxicity, Colo205 cells (CellTiter-GLO, 4 days) of 10 µg/mL; an IC50 of cytotoxicity, HCC1954 cells (CellTiter-GLO, 4 days) of 10 µg/mL; an IC50 of cytotoxicity, SK-OV-3 cells (CellTiter-GLO, 4 days) of 5.46 µg/mL; a lysosomal co-localization with LAMP1 in SK-OV-3 cells (confocal microscopy, 16 hours) of 10 fold lower.
The molecule B12 returned an IC50 of cytotoxicity, Colo205 cells (CellTiter-GLO, 4 days) of 10 µg/mL; an IC50 of cytotoxicity, HCC1954 cells (CellTiter-GLO, 4 days) of 5.27 µg/mL; an IC50 of cytotoxicity, SK-OV-3 cells (CellTiter-GLO, 4 days) of 4.52 µg/mL.
For B13 the same measures were 1.69 µg/mL, 0.013 µg/mL and 0.021 µg/mL.
Consider B14, for which the IC50 of cytotoxicity, Colo205 cells (CellTiter-GLO, 4 days) turned out to be 3.93 µg/mL; the IC50 of cytotoxicity, HCC1954 cells (CellTiter-GLO, 4 days) is 1.35 µg/mL; the IC50 of cytotoxicity, SK-OV-3 cells (CellTiter-GLO, 4 days) stood at 1.99 µg/mL.
For B15 the same measures were 10 µg/mL, 0.065 µg/mL and 0.314 µg/mL.
